Read-outs that look alike come from different tables or passages of the source.
Tests used:
FP-13 = biological target: T1, FP-13; assay: ELISA, coated antigen, mAb titrated
T1 epitope scaffold: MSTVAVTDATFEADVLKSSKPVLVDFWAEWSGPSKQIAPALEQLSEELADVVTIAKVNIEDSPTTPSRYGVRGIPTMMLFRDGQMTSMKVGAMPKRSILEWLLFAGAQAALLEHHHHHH

[1] = biological target: T2, SARS-CoV-2 spike (WA-2, 2P) (SARS-CoV-2, UniProt P0DTC2 14-1208); assay: ELISA, coated antigen, mAb titrated
[2] = biological target: SARS-CoV-2 spike (WA-2, 2P) (SARS-CoV-2, UniProt P0DTC2 14-1208)
S2hlx-Ex34 [3] = biological target: T3, S2hlx-Ex34; assay: SPR, mAb captured, scaffold as analyte
T3 chain: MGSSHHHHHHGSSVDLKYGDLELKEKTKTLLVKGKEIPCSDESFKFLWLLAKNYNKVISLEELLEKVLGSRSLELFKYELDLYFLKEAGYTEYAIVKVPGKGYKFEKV

S2hlx-Ex37 [4] = biological target: T4, S2hlx-Ex37; assay: SPR, mAb captured, scaffold as analyte
T4 chain: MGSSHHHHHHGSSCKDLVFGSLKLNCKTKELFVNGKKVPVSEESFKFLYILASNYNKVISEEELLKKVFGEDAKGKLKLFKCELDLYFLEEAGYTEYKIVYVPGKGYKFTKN

S2hlx-Ex54 [5] = biological target: T5, S2hlx-Ex54; assay: SPR, mAb captured, scaffold as analyte
T5 chain: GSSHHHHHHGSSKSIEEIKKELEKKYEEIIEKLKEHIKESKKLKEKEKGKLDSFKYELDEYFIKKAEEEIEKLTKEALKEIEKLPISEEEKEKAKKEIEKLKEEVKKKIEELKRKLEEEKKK

S2hlx-Ex15 F1148A = biological target: T6, S2hlx-Ex15 F1148A; assay: ELISA; antigen coated, mAb titrated
T6 epitope scaffold: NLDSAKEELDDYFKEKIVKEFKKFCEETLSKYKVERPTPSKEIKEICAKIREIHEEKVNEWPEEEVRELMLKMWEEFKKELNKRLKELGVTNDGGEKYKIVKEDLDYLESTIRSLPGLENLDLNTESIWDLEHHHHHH

S2hlx-Ex15 [6] = biological target: T7, S2hlx-Ex15; assay: ELISA; antigen coated, mAb titrated
T7 chain: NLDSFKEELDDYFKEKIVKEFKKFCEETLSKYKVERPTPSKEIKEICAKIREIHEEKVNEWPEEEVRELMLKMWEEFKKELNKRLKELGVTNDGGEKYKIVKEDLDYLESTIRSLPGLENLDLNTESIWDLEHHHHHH

S2hlx-Ex2-Trx = assay: ELISA, coated antigen, mAb titrated
S2hlx-Ex4-Trx = assay: ELISA, coated antigen, mAb titrated
S2hlx-Ex46 [7] = biological target: T8, S2hlx-Ex46; assay: ELISA; antigen coated, mAb titrated
T8 epitope scaffold: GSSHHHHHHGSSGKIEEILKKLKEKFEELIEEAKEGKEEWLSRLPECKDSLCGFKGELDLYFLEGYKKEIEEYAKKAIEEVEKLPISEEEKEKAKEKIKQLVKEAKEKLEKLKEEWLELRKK

S2hlx-Ex25 [8] = biological target: T9, S2hlx-Ex25; assay: ELISA; antigen coated, mAb titrated
T9 chain: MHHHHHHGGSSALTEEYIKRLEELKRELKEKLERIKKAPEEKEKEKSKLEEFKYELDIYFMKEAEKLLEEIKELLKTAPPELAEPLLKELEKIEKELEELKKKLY

S2hlx-Ex34 [9] = biological target: T3, S2hlx-Ex34; assay: ELISA; antigen coated, mAb titrated
S2hlx-Ex54 [10] = biological target: T5, S2hlx-Ex54; assay: ELISA; antigen coated, mAb titrated
S2hlx-Ex15 [11] = biological target: T7, S2hlx-Ex15; assay: SPR, mAb captured, antigen as analyte
S2hlx-Ex17 [12] = biological target: T10, S2hlx-Ex17; assay: SPR, mAb captured, antigen as analyte
T10 chain: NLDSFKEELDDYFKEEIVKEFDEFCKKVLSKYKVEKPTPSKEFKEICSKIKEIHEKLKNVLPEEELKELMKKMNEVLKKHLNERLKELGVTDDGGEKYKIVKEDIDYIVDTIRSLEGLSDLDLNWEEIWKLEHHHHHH

S2hlx-Ex20 [13] = biological target: T11, S2hlx-Ex20; assay: SPR, mAb captured, antigen as analyte
T11 chain: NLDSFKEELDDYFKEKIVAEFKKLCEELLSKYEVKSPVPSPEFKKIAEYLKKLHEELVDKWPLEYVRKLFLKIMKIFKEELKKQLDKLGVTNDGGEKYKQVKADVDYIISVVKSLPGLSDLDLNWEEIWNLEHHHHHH

S2hlx-Ex15 [14] = biological target: T7, S2hlx-Ex15; assay: SPR, mAb captured, antigen as analyte
S2hlx-Ex17 [15] = biological target: T10, S2hlx-Ex17; assay: SPR, mAb captured, antigen as analyte
S2hlx-Ex20 [16] = biological target: T11, S2hlx-Ex20; assay: SPR, mAb captured, antigen as analyte
S2hlx-Ex8-Trx = biological target: T12, S2hlx-Ex8-Trx; assay: SPR, mAb captured, antigen as analyte
T12 chain: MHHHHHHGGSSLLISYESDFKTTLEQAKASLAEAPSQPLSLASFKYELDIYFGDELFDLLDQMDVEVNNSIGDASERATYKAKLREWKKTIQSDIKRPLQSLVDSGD

S2hlx-Ex25 [17] = biological target: T9, S2hlx-Ex25; assay: SPR, mAb captured, antigen as analyte
S2hlx-Ex34 [18] = biological target: T3, S2hlx-Ex34; assay: SPR, mAb captured, antigen as analyte
S2hlx-Ex25 [19] = biological target: T9, S2hlx-Ex25; assay: ELISA; antigen coated, mAb titrated
S2hlx-Ex34 [20] = biological target: T3, S2hlx-Ex34; assay: ELISA; antigen coated, mAb titrated
S2hlx-Ex35 = biological target: T13, S2hlx-Ex35; assay: ELISA; antigen coated, mAb titrated
T13 chain: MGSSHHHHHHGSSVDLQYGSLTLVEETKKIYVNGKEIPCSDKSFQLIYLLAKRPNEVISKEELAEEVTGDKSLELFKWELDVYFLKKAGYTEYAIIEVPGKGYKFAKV

S2hlx-Ex46 [21] = biological target: T8, S2hlx-Ex46; assay: SPR, single cycle; mAb captured on Protein A, epitope scaffold as analyte
S2hlx-Ex37 [22] = biological target: T4, S2hlx-Ex37; assay: as above
S2hlx-Ex54 [23] = biological target: T5, S2hlx-Ex54; assay: as above
[24] = biological target: T2, SARS-CoV-2 spike (WA-2, 2P); assay: ELISA, coated spike, mAb titrated
[25] = biological target: T2, SARS-CoV-2 spike (WA-2, 2P); assay: ELISA, coated spike, mAb titrated; remark: listed apart in the source

B1: COV44-79 (antibody, V domains shown)
VH: QVQLVESGGGVVQPGRSLRLSCAASGLTFSGYAMHWVRQAPGKGLEWVAVISRDARNKYYADSVKGRFTISRDNSKKTVYLEMNSLRVEDTAVYYCAILIIPGITEPGSPDALDIWGQGTMVSVSS
VL: DIQMTQSPSSMSASVGDRVTITCRASQDISKWLAWYQQRPGKAPKLLIYAASSLQSGVPSRFSGSGSGTDFTLTISSLQPEDFATYYCQQASSFPWSITFGQGTRLEIR
EC50 (read off the curve) (FP-13): ~3 µg/mL

B2: inferred UCA of DH1501.1, DH1501.2 and DH1501.3 (antibody, V domains shown)
VH: QVQLVQSGAEVKKPGASVKVSCKASGYTFTSYYMHWVRQAPGQGLEWMGIINPSGGSTSYAQKFQGRVTMTRDTSTSTVYMELSSLRSEDTAVYYCARMSRYGAFDIWGQGIMVTVSS
VL: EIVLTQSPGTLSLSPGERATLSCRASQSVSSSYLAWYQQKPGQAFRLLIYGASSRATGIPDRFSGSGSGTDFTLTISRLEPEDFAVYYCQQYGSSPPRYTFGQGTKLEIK
EC50 (read off the curve) [1]: ~0.02 µg/mL

B3: CC40.8 mAb (antibody, V domains shown)
VH: EVQLLESGGGLVQPGGSLRLSCAASGFTFSSYVMTWARQAPGKGLEWVSAISGTGYTYYADSVKGRFTVSRDNSKNTLFLQMSSLRAEDTAVYYCAITMAPVVWGQGTTVTVSS
VL: SYELTQPPSVSVSPGQTARITCSGDALPKRYAYWYQQKSGQAPILVIYEDKKRPSGIPERLSGSKSGTVATLTISGAQVEDEADYYCYSTDSSGNHAVFGGGTQLTVL
Kd [2]: 2.7 nM | Kd (S2hlx-Ex34 [3]): 486 nM | Kd (S2hlx-Ex37 [4]): 849 nM | Kd (S2hlx-Ex54 [5]): 150 nM | EC50 (read off the curve) (S2hlx-Ex15 F1148A): ~0.02 µg/mL | EC50 (read off the curve) (S2hlx-Ex15 [6]): ~0.02 µg/mL | EC50 (read off the curve) (S2hlx-Ex2-Trx): ~0.1 µg/mL | EC50 (read off the curve) (S2hlx-Ex4-Trx): ~0.05 µg/mL | EC50 (read off the curve) (S2hlx-Ex46 [7]): ~0.2 µg/mL | EC50 (read off the curve) (S2hlx-Ex25 [8]): ~0.2 µg/mL | EC50 (read off the curve) (S2hlx-Ex34 [9]): ~0.4 µg/mL | EC50 (read off the curve) (S2hlx-Ex54 [10]): ~0.04 µg/mL | Kd (S2hlx-Ex15 [11]): 3.4 nM | Kd (S2hlx-Ex17 [12]): 27.1 nM | Kd (S2hlx-Ex20 [13]): 10.6 nM | Kd (S2hlx-Ex15 [14]): 3.4 nM | Kd (S2hlx-Ex17 [15]): 27.1 nM | Kd (S2hlx-Ex20 [16]): 10.6 nM | Kd (S2hlx-Ex8-Trx): 1230 nM | Kd (S2hlx-Ex25 [17]): 12100 nM | Kd (S2hlx-Ex34 [18]): 3880 nM | EC50 (read off the curve) (S2hlx-Ex25 [19]): ~0.01 µg/mL | EC50 (read off the curve) (S2hlx-Ex34 [20]): ~0.1 µg/mL | EC50 (read off the curve) (S2hlx-Ex35): ~0.8 µg/mL | Kd (S2hlx-Ex46 [21]): 21500 nM | Kd (S2hlx-Ex37 [22]): 849 nM | Kd (S2hlx-Ex54 [23]): 150 nM

B4: DH1498 (antibody, V domains shown)
VH: QVQLQESGPGLVKPSETLSLTCAVSGGSVSSDTYYWSWIRQPPGKGLEWIGYIYNSGSTNYNPSLKSRVTISVDTSKSQFSLNLGSVTAADTAVYYCAREGAGTYPPKNDAFDIWGQGTLVTVSS
VL: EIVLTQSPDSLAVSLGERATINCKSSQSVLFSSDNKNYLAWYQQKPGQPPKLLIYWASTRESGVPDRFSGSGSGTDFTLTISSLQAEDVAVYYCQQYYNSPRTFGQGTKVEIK
EC50 (read off the curve) [24]: ~0.04 µg/mL

B5: Cov44-26 (antibody, V domains shown)
VH: QVQLVQSGAEVKKPGASVKVSCKASGYTFSNFYMNWVRQAPGQGLEWVGLISPSAGYTAYAQMFQGRVTMTRDTSTSTVYMELSSLRSEDTAVYYCARVAVAGPNDYWGQGTLVTVSS
VL: EIVLTQSPGTLSLSPGERATLSCRASQSISSSYLAWYQQKPGQAPRLVIFAASTRATGIPDRFSGSGSGTDFTLTITRLEPEDFALYYCQHYRSSPPLWTFGQGTKVEIR
EC50 (read off the curve) (S2hlx-Ex25 [8]): ~0.02 µg/mL

B6: DH1509 (antibody, V domains shown)
VH: QVQLVESGGGVVQPGRSLRLSCAASGFTLSSHGIHWVRQAPGKGLEWVAVTSFDGRNKKFGDSVKGRFTISRDNSKNTVYLQMNSLRTEDTAVYYCAKDWGDDYSRWYFDLWGRGTLVTVSS
VL: DIQMTQSPSSLSASVGDRVTITCQASHDITKYLNWYQQKPGRAPKLLIYDASNLKTGVPSRFSGSGSGTDFTFTITSLQPEDLATYYCQQSDVLPITFGQGTRLEIK
EC50 (read off the curve) [25]: ~0.6 µg/mL
